From patent US20210269771A1 (RAMOT AT TEL AVIV UNIVERSITY, published 2021)

Key:
[1] = target: T1, gp120 antigen of the YU2.DG HIV strain, His-tagged (HIV-1 strain YU2.DG, UniProt P35961 32-498); experiment: flow cytometry on engineered primary human and murine B cells
T1 construct: domain: gp120; also called gp120-YU2.DG; gp120-YU2

[2] = target: T1, gp120 antigen of the YU2.DG HIV strain, …; experiment: ELISA (FIG. 15A)

B1: 3BNC117 expressed as a membranal B cell receptor (BCR) on engineered B cells (antibody, V domains shown)
VH: QVQLLQSGAAVTKPGASVRVSCEASGYNIRDYFIHWWRQAPGQGLQWVGWINPKTGQPNNPRQFQGRVSLTRHASWDFDTFSFYMDLKALRSDDTAVYFCARQRSDYWDFDVWGSGTQVTVSS
VL: DIQMTQSPSSLSASVGDTVTITCQANGYLNWYQQRRGKAPKLLIYDGSKLERGVPSRFSGRRWGQEYNLTINNLQPEDIATYFCQVYEFVVPGTRLDLK
notes: also called 3BNC117 BCR; ADN171
Question: Does B1 bind [1]?
Answer: binds

B2: 3BNC117 antibody, recombinant, expressed in Expi293F cells and purified (antibody, V domains shown)
VH: B1 VH
VL: B1 VL
notes: also called pADN210 (light chain) / pADN211 (heavy chain)
Question: Does B2 bind [2]?
Answer: binds
